Source: article PMC3409459, “Absorption, distribution, metabolism and excretion of peginesatide, a novel erythropoiesis-stimulating agent, in rats” (Xenobiotica; the Fate of Foreign Compounds in Biological …, 2011)

How the values were obtained:
[1] = Plasma pharmacokinetics of unlabeled peginesatide after a single IV dose (ELISA); assay type: in vivo, male Sprague-Dawley rats; details: for time for which plasma concentrations were quantifiable: LLOQ 40 ng/mL; for AUC0–t / CL / t½ / Cmax: plasma, mean (SD), n=3; for Cmax: value at 0.25 h
Procedure: Plasma samples were analyzed for peginesatide concentration using a competition enzyme linked immunosorbent assay (ELISA) as previously described ([Fan et al. 2006]). The capture anti-peginesatide antibody was a high affinity polyclonal antibody preparation directed against the peptidic part of the molecule so the assay detects mono- and di-PEG-conjugated peptide as well as free peptide. The lower limit of quantitation was 40 ng-mL^1, the intra assay precision (% coefficient of variation) was 5-10% and the intra assay accuracy (% bias) was 1.9-5.7%.
The PK of peginesatide was assessed in male Sprague-Dawley rats following the administration of unlabeled and radiolabeled test article. The linearity of the PK profile was evaluated in rats (n = 3/group) administered a single IV dose of peginesatide at 0.1, 0.5, or 5 mg·kg^−1. Blood samples were collected predose and 0.25,1, 6, and 24h, and 2,3, 5, 7,10,14,17, 21, 24, and 28 days following dosing. Samples were analyzed by ELISA.
(§1) Noncompartmental PK parameters for peginesatide and metabolites were generated using WinNonlin ver. 4.0, Pharsight Corporation (Mountain View, CA). The maximum plasma concentration (Cmax) and their times of occurrence (tmax) were obtained directly from the mean plasma concentration vs. time profiles. The areas under the plasma concentration-time curves […] were estimated by the linear trapezoidal rule - by adding all the area portions under the curve from time zero to the time of the last observed plasma concentration (tn). Elimination rate constants (kz) were estimated by fitting a linear regression of log mean concentration against time data in the terminal exponential phase (at least 3 data points). Apparent terminal half-life (t1/2) was calculated as In2/λz. The AUC0-inf was calculated as the sum of AUC0-t and Cobs/λz, where Cobs, was the actual concentration at the time of the last quantifiable concentration. The plasma clearance (CL) for peginesatide was estimated as the ratio of dose/ AUC0-inf. The mean residence time (MRT) was calculated as the ratio of AUMC0-inf/AUC0-inf, where AUMC0-inf was the area under the first moment curve from the time zero to infinity. The volume of distribution at steady state (Vss) was estimated as CL x MRT.

[2] = Plasma total radioactivity pharmacokinetics after single IV [^14C]-peginesatide (LSC); assay type: in vivo, male Sprague-Dawley rats; details: single 5 mg-kg^-1 IV [^14C]-peginesatide, n=3
Procedure: Total captured radioactivity was subsequently measured via LSC.
The plasma samples were analyzed for total radioactivity using LSC.
as §1

[3] = set-up: species or system male Sprague-Dawley rats; details: rat, in vivo, iv
Procedure: (§2) The metabolite profiling in the biological samples from rats dosed with [^14C]-peginesatide was performed by high-performance liquid chromatography (HPLC). The radiolabeled materials in the samples of plasma and aqueous homoge-nates of tissues and feces were extracted with five volumes of methanol containing 0.1% of trifluoroacetic acid (TFA), mixed and centrifuged at 1500g at 4°C for l0 min to obtain supernatant. A portion of the supernatant was counted to estimate the extraction recovery of [^14C]-peginesatide and its related compounds in the biological samples. The rest of the supernatant was evaporated to dryness under a nitrogen gas stream. The residue was re-dissolved in a small volume of equal parts mobile phase [MP(A)] and B [MP(B)] for chromatographic analysis. The HPLC system (Simadzu, Kyoto, Japan) consisted of a LC-lOADvp pump, a CTO-lOACvp column oven, an SPD-lOAvp UV detector, and an SCL-lOAvp system controller. […] A mixture of 0.1% TFA aqueous solution and 0.1% TFA in methanol solution were used for MP(A) and MP(B), respectively. The flow rate was 0.5mL/min, and the peaks were monitored by a UV absorption detector at 215 run. The time for the gradient elution was as follows: the concentration of MP(B) was increased from 50 to 80% and from 80 to 83% over a period of 2-10min and 10-20min, respectively. […] The effluentwas collected into 0.5mL size fractions, followed by counting of the radioactivity (LSC). Under these conditions unchanged peginesatide and mono-PEG eluted at approximately 22 and 10 min, respectively.
The urine and fecal samples were obtained from the animals (n = 3) dosed in the mass balance study. Urine and fecal samples were collected every 24h and were combined into 2 aliquots (0-168 and 168-336h) for metabolite analysis. The urine and fecal samples were subjected to analysis by HPLC-fraction collection. Urine sample radioactivity was measured by LSC and fecal homogenate samples were measured by LSC following combustion.

[4] = In vivo metabolite profiling, plasma and tissues at 14 days; set-up: species or system male Sprague-Dawley rats; details: rat, iv, 5 mg/kg
Procedure: as §2
A single dose of [^14C]-peginesatide at 5 mg·kg^−1 was administered to male Sprague-Dawley rats (n = 9) by IV injection. At 14 days after dosing, animals were euthanized and samples of plasma, liver, spleen, kidneys, testes, and bone marrow were collected. Plasma and tissue extract samples were analyzed for levels of total radioactivity, peginesatide, and potential metabolites using LSC. Tissue homogenates (prepared in saline at a concentration of 20% [w/v] for the liver, kidneys and testes and 10% [w/v] for the spleen and bone marrow) were analyzed for radioactivity by LSC following combustion. The concentration of radioactivity in the blood, plasma, and tissues was calculated and expressed as ug equiv·g^-1 or mL based on the LSC counts and the specific activity of the dosing solution.

Substance: Peginesatide
- time for which plasma concentrations were quantifiable ([1]; 0.1 mg·kg^−1 IV): 3 days
- AUC0–t ([1]; 0.1 mg·kg^−1 IV): 60.3 (4.71) μg·h/mL
- CL ([1]; 0.1 mg·kg^−1 IV): 1.65 (0.13) mL/h/kg
- t½ ([1]; 0.1 mg·kg^−1 IV): 17.5 (0.3) h
- Cmax ([1]; 0.1 mg·kg^−1 IV): 2.56 (0.162) μg/mL
- AUC0–t ([1]; 0.5 mg·kg^−1 IV): 388 (48.8) μg·h/mL
- CL ([1]; 0.5 mg·kg^−1 IV): 1.29 (0.18) mL/h/kg
- t½ ([1]; 0.5 mg·kg^−1 IV): 19.7 (2.6) h
- Cmax ([1]; 0.5 mg·kg^−1 IV): 13.5 (1.40) μg/mL
- time for which plasma concentrations were quantifiable ([1]; 5 mg·kg^−1 IV): up to 7 days
- AUC0–t ([1]; 5 mg·kg^−1 IV): 5405 (327) μg·h/mL
- CL ([1]; 5 mg·kg^−1 IV): 0.92 (0.06) mL/h/kg
- t½ ([1]; 5 mg·kg^−1 IV): 31.6 (3.4) h
- Cmax ([1]; 5 mg·kg^−1 IV): 137 (6.19) μg/mL
- Cmax, total radioactivity [2]: 150 ug equiv·mL^−1
- Percent dose excretion, Feces 0–168 h [3]: 1.9 % dose
- Percent dose excretion, Feces 0–336 h [3]: 1.9 % dose
- Percent dose excretion, Feces 168–336 h [3]: LOQ (0)
- Percent dose excretion, Urine 0–168 h [3]: 23.3 % dose
- Percent dose excretion, Urine 0–336 h [3]: 27.5 % dose
- Percent dose excretion, Urine 168–336 h [3]: 4.2 % dose
- Day 14 concentration, Bone marrow [4]: 3.22 μg equiv·g^−1 or mL
- Day 14 concentration, Liver [4]: 5.63 μg equiv·g^−1 or mL
- Day 14 concentration, Plasma [4]: 1.94 μg equiv·g^−1 or mL
- Day 14 concentration, Spleen [4]: 14.3 μg equiv·g^−1 or mL
- Day 14 concentration, Testes [4]: 2.68 μg equiv·g^−1 or mL
- percent radioactivity, Bone marrow, Day 14 [4]: 58.2%
- percent radioactivity, Kidneys, Day 14 [4]: 54.1%
- percent radioactivity, Liver, Day 14 [4]: 63.2%
- percent radioactivity, Spleen, Day 14 [4]: 61.2%
- percent radioactivity, Testes, Day 14 [4]: 66.0%
- share of total tissue radioactivity across liver, spleen, kidney, testes and bone marrow [4]: 54-66%
